Measured values from article PMC7954794, “Protein context shapes the specificity of SH3 domain-mediated interactions in vivo” (Nature Communications, 2021).

B1: YNL106C (protein, UniProt P50942 1-1183, looked up)
Polyphosphatidylinositol …: MKILLSKQQTRKIAIVSETHGLVFRPINSKNSRRSTCAVELVPKAELNGNGFRRLSNHEIYGFIGLIEIEGLMFIATITGKSKVAQPIPNKTVNKIYAVDFFCLNNSKWDFMDIDSSGYPIVTNDGDFAISSPPSISTHSSRSSLRSSSSRSLNAQEQAPKHPCHELRKLLSNGSFYYSTDFDLTCTLQKRGFTEHSLSFDDFDREFMWNSFLMDEIITYRDRLDVTAKELLDQRGFLTTVIRGFAETIFSYINRLKVGLTIISRQSWKRAGTRFNARGIDDDGHVANFVETEMIMYSSQYCYAFTQIRGSLPIFWEQDTSLISPKIQITRSVEATQPTFDEHFIRLFKKYGPVHIINLLSTKSSEIQLSRRYKEQLKNSEKMKIGRDVFLTSFDFHRETSQDGFAAASRIIPKIRNTILDAGYFSYDVKEGRLISEQDGVFRTNCLDCLDRTNLIQQTISLAVFKLFLEDFRLVKPSSFIDDNEFVQKVNALWADNGDQISQIYTGTNALKSSYSRKGKMSFSGALSDATKSVSRMYINNFVDKGKQQNIDTLLGKLPHQQVVELYDPICEYVNERLLESEEKFTTHSNINLFVGTFNVNGNSRRADLSKWLFPIGDKFKPDVVVLGLQEVIELTAGSILNADYTKSSFWETMVTDCLNQYEEKYLLLRVEQMSSLLILFFARSDRAYNIKEVGGSTKKTGFGGITGNKGAVAIRFDYGATSFCFVNTHLSAGASNIDERRNDYNNIYRNITFPRSKTIPHHDSLFWLGDLNYRITLTNDEVRRELRAQKDGYIDRLLQYDQLTQEINEGVVFQGFKEPTLQFRPTYKYDYGTDNYDTSEKARTPSWTDRIIYKGENLHPLAYSDAPLKISDHKPVYAAYRANVKFVDEKEKLNLVEKLYAEYKNTHPEALTTGPDELSHARMEKQKESIPLDATVQSAGIKLIDLDDTSSCVSPLLSGPSPQPSVVGPGGLSNVSPDKSKLNVLPPPPPTSRHNKEPSSKLLSPTKEISIVSVSPRKGESNLPALERHSTPKPLPPVPALSLSKPVSLQKSSSELQHAKETIDNGKIVPRPCPPIRRKSSTAPDEISTSTKNSGVSTTEDPEPAKASTKPEKPPVVKKPHYLSVAANKLNTSQEHSIKVSPSNSKSEEELPCKKKSKPKVPAKNPELEKLSVHPLKPCDPN
B2: YNL229C (protein, UniProt P23202 2-354, looked up)
Transcriptional regulator URE2: MNNNGNQVSNLSNALRQVNIGNRNSNTTTDQSNINFEFSTGVNNNNNNNSSSNNNNVQNNNSGRNGSQNNDNENNIKNTLEQHRQQQQAFSDMSHVEYSRITKFFQEQPLEGYTLFSHRSAPNGFKVAIVLSELGFHYNTIFLDFNLGEHRAPEFVSVNPNARVPALIDHGMDNLSIWESGAILLHLVNKYYKETGNPLLWSDDLADQSQINAWLFFQTSGHAPMIGQALHFRYFHSQKIASAVERYTDEVRRVYGVVEMALAERREALVMELDTENAAAYSAGTTPMSQSRFFDYPVWLVGDKLTIADLAFVPWNNVVDRIGINIKIEFPEVYKWTKHMMRRPAVIKALRGE
B3: YNL307C (protein, UniProt P21965 2-375, looked up)
Protein kinase MCK1: STEEQNGVPLQRGSEFIADDVTSNKSNNTRRMLVKEYRKIGRGAFGTVVQAYLTQDKKNWLGPFAIKKVPAHTEYKSRELQILRIADHPNIVKLQYFFTHLSPQDNKVYQHLAMECLPETLQIEINRYVTNKLEMPLKHIRLYTYQIARGMLYLHGLGVCHRDIKPSNVLVDPETGVLKICDFGSAKKLEHNQPSISYICSRFYRAPELIIGCTQYTTQIDIWGLGCVMGEMLIGKAIFQGQEPLLQLREIAKLLGPPDKRFIFFSNPAYDGPLFSKPLFSGSSQQRFEKYFGHSGPDGIDLLMKILVYEPQQRLSPRRILAHQFFNELRNDDTFLPRGFTEPIKLPNLFDFNDFELQILGEFADKIKPTKVAE
B4: YML035C (protein, UniProt P15274 1-810, looked up)
AMP deaminase: MDNQATQRLNDLSLEPAPSHDEQDGSGLVIDIDQRKIGDEQAGVVVDDETPPLEQQDSHESLAADSRNANFSYHENQQLLENGTKQLALDEHDSHSAILEQPSHSTNCSSSNIAAMNKGHDSADHASQNSGGKPRTLSASAQHILPETLKSFAGAPVVNKQVRTSASYKMGMLADDASQQFLDDPSSELIDLYSKVAECRNLRAKYQTISVQNDDQNPKNKPGWVVYPPPPKPSYNSDTKTVVPVTNKPDAEVFDFTKCEIPGEDPDWEFTLNDDDSYVVHRSGKTDELIAQIPTLRDYYLDLEKMISISSDGPAKSFAYRRLQYLEARWNLYYLLNEYQETSVSKRNPHRDFYNVRKVDTHVHHSACMNQKHLLRFIKHKLRHSKDEKVIFRDGKLLTLDEVFRSLHLTGYDLSIDTLDMHAHKDTFHRFDKFNLKYNPIGESRLREIFLKTNNYIKGTYLADITKQVIFDLENSKYQNCEYRISVYGRSLDEWDKLASWVIDNKVISHNVRWLVQIPRLYDIYKKTGIVQSFQDICKNLFQPLFEVTKNPQSHPKLHVFLQRVIGFDSVDDESKVDRRFHRKYPKPSLWEAPQNPPYSYYLYYLYSNVASLNQWRAKRGFNTLVLRPHCGEAGDPEHLVSAYLLAHGISHGILLRKVPFVQYLYYLDQVGIAMSPLSNNALFLTYDKNPFPRYFKRGLNVSLSTDDPLQFSYTREPLIEEYSVAAQIYKLSNVDMCELARNSVLQSGWEAQIKKHWIGKDFDKSGVEGNDVVRTNVPDIRINYRYDTLSTELELVNHFANFKRTIEEK
B5: YNL084C (protein, UniProt P39013 1-349, looked up)
Actin cytoskeleton-regulatory …: MPKLEQFEIKKYWQIFSGLKPIENKVNHDQVLPILYNSKLDSSVLNKIWFLADIDDDDNLDFEEFVICMRLIFDMVNKNISSVPDELPDWLIPGSKVNLIKERKKRKQIENADLPPKKEIKVDWYMSPDDLNQYEKIYNSCAKLTDGTITFNELSTKLSTKFFNISKTDLNKVWSLINPQNLPSIDRDPTFYFIHCLRQRNDLGAEIPASLPNSLAEVCNKKQLSYDLRSSQPPTKRKEEANEVDNLRDNGQNSSSDSSGSNVLSNEDSIKQKYASLTDDQVANMREQLEGLLNYKKSEKTQGGSKLSKRINIRSITDDLDNIEQQVEVLENYLNNKRHELQALQAEIN

What follows are molecules tested on 575 putative partners (preys) of 22 WT SH3-containing proteins (assay: DHFR-PCA on solid medium, WT and SH3-deleted baits (Fig. 1B)). Details: bait SLA1-2, DHFR-PCA, label = prey; Replicates 4 (2 for YCR009C, YDR388W).
Type: cell-based, Saccharomyces cerevisiae
Set-up: key to Score: 0: SH3-independent; 1: SH3-dependent PPIs; 2: SH3-inhibited PPIs
Text: To assess the requirement of SH3 domains for PPIs in vivo, we first measured binary interactions between 22 WT SH3-containing proteins (Supplementary Fig. 1A) as baits and 575 putative partners from their interconnected signaling networks using the dihydrofolate reductase protein–fragment complementation assay (DHFR-PCA) in the budding yeast Saccharomyces cerevisiae. About 33% (202/607) of the PPIs detected were described before, mostly by direct methods (Supplementary Fig. 1B, C)[11]. We repeated the experiments with baits in which the SH3s were individually replaced with a flexible linker by genome editing (SH3 domain deletion/stuffing, Fig. 1A). The stuffer DNA sequence ([…]) codes for a small flexible poly-Gly with Ser peptide ([…]) that is inspired by previous experiments[12],[13]. About a third of the SH3-containing protein interactome is qualitatively or quantitatively SH3-dependent (171 PPIs out of 607, Fig. 1B and Supplementary Fig. 1B, C). We validated the vast majority of the quantitative changes in low-throughput experiments and excluded that this is simply due to changes in protein abundance in most cases (Supplementary Fig. 1D–G). SH3-binding motifs[14] are more frequent in the SH3-dependent PPI partners when compared to sequences from random proteins, SH3-independent PPI partners or PPI partners that are stronger or gained following SH3 deletions (p values = 1.5 × 10^−17, 0.0038 and 2.1 × 10^−08, respectively; Mann–Whitney test, one-tailed, Fig. 1C). The changes we measure are therefore enriched for PPIs that depend on the direct interactions of the domains with the PPI partners.
The complete list of strains, primers, and gRNAs used in this study can be found in Supplementary Tables 1–3. All constructed yeast strains were validated by polymerase chain reaction (PCR) and confirmed by Sanger sequencing of the locus of interest. Bait strains for the DHFR-PCA experiments were constructed as follows. The genes of interest were fused at their genomic 3′ end by replacing the stop codon with a linker ([…]), the DHFR F[1,2] followed by a smaller linker (GGGGS), a 1× FLAG tag ([…]) and the NATMX4 resistance cassette via homologous recombination (all amplified from pAG25-DHFR[1,2]-linker-FLAG). The set of 615 prey strains (DHFR F[3] fusions in the BY4742 background) were retrieved from the Yeast Protein Interactome Collection[43] with the exception of 73 that were reconstructed (Supplementary Tables 1 and 2). Knockout strains were taken from the yeast knockout collection except for ABP1, BEM1, BZZ1, and SLA1, which were reconstructed by replacing the ORFs with the NATMX4 resistance cassette by homologous recombination in the BY4741 background.
Yeast SH3 domain genomic sequences were replaced by CRISPR–Cas9 genome editing. Each SH3 domain (as defined by the SMART database V8.0 except for Ysc84 SH3 (as defined by PROSITE), see Source Data for all SH3 sequences and Supplementary Table 1 for primers used) was specifically targeted by one gRNA[46]. Yeast competent cells were co-transformed with a pCAS plasmid (Addgene plasmid 60847[47]) expressing both the gRNA of interest and Streptococcus pyogenes Cas9[46] and a donor DNA sequence (stuffer) with 60 bp homology arms surrounding the SH3 DNA sequence. The Stuffer DNA was either PCR amplified or digested from a plasmid. The stuffer DNA sequence ([…]) codes for a small flexible linker ([…]) inspired by protein linkers used in structural biology[12],[13]. This type of linker is frequently used for fusing proteins without affecting the structure of the linked proteins.
The overall DHFR-PCA pipeline is based on Tarassov et al.[43] and the procedures have also been published as a visualized protocol. The screens were performed with robotically manipulated pin tools (BM5-SC1, S&P Robotics Inc.). First, the preys were cherry-picked from 96-well plates to omnitrays in a 384 format on YPD + HPH solid media. […]
In the case of B1, the “medrep (log2 median colony size normalized to plate background, PCA score)” value is reported as 1.813. With B2 the “medrep (log2 median colony size normalized to plate background, PCA score)” value was 1.546. In the case of B3, the “medrep (log2 median colony size normalized to plate background, PCA score)” value is reported as 1.966. For B4, the “medrep (log2 median colony size normalized to plate background, PCA score)” value was 2.073.

Same assay, conditions: bait SLA1-2, label = prey
In the case of B1, the Score is reported as 1. For B2, the Score was 1. B3 gave a Score of 1. B4 gave a Score of 1.

Same assay, conditions: bait SLA1-2, label = prey; only significant differences shown; PPIs completely lost have a ratio of 0.1, gained PPIs 2.5
For B1, the “Ratio (SH3-deleted/WT medrep)” value was 0.1. B2 was tested, and the “Ratio (SH3-deleted/WT medrep)” value was 0.1. In the case of B3, the “Ratio (SH3-deleted/WT medrep)” value is reported as 0.1. B4 was tested, and the “Ratio (SH3-deleted/WT medrep)” value was 0.1.

Same assay, conditions: bait SLA1-3, DHFR-PCA, label = prey; Replicates 4 (2 for YCR009C, YDR388W, YIL033C)
In the case of B1, the “medrep (log2 median colony size normalized to plate background, PCA score)” value is reported as 1.813. In the case of B2, the “medrep (log2 median colony size normalized to plate background, PCA score)” value is reported as 1.546. For B3, the “medrep (log2 median colony size normalized to plate background, PCA score)” value was 1.966. In the case of B5, the “medrep (log2 median colony size normalized to plate background, PCA score)” value is reported as 4.605. In the case of B4, the “medrep (log2 median colony size normalized to plate background, PCA score)” value is reported as 2.073.

Same assay, conditions: bait SLA1-3, label = prey
B1 was tested, and the Score was 1. In the case of B2, the Score is reported as 0. In the case of B3, the Score is reported as 0. B5 gave a Score of 0. B4 gave a Score of 0.

Same assay, conditions: bait SLA1-3, label = prey; only significant differences shown; PPIs completely lost have a ratio of 0.1, gained PPIs 2.5
For B1, the “Ratio (SH3-deleted/WT medrep)” value was 0.1.

What follows are molecules tested on ABP1 (assay: DHFR-PCA on solid medium, bait ABP1 (Fig. 1B)). Details: bait ABP1, label = prey; 2-4 replicates.
Type: cell-based, Saccharomyces cerevisiae
Text: Supplement 41467_2021_21873_MOESM8_ESM.xlsx, sheet "Fig1B" | column: medsize; medrep; Ratio; Score
In the case of B1, the “medrep (log2 median colony size normalized to plate background, PCA score)” value is reported as 3.9733. With B2 the “medrep (log2 median colony size normalized to plate background, PCA score)” value was 1.889. For B3, the “medrep (log2 median colony size normalized to plate background, PCA score)” value was 1.521. With B5 the “medrep (log2 median colony size normalized to plate background, PCA score)” value was 4.13. In the case of B4, the “medrep (log2 median colony size normalized to plate background, PCA score)” value is reported as 3.81.
